Test results: patent US20250011431A1 (ADIVO, published 2025)
One block for each binder: values may come before it.

Columns and labels:
[1] = molecular target: T1, cPD-L1_hFc (canine PD-L1 Fc-fusion protein; Sino Biological Cat. 70110-D02H) (canine; human); test: binding ELISA, IgG titrated on plate-bound cPD-L1_hFc
T1 construct: Bought product; also called canine PD-L1_hFc; cPD-L1 fusion protein; not shown: human Fc tag (hFc)
T1 chain: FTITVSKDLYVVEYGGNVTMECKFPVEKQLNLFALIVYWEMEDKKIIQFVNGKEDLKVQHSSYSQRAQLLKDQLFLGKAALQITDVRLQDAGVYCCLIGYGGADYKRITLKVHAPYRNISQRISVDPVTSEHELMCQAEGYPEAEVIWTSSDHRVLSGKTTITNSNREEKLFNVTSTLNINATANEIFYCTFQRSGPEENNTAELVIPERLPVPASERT
Protocol: cPD-L1 fusion proteins were directly immobilized on the plate, commonly in a concentration of 57 nM. For binding ELISA, black 384 well Maxisorp plates were used. This was performed overnight at 4° C. The coated plates were washed 3× with PBS-T, followed by blocking with Chemiblocker (Merck-Millipore; 2170) for 1 h at RT. After blocking, dilution series of the respective antibodies were added to the plate usually covering concentrations ranging from the single digit ng/ml to the single-digit ug/ml range. Antibodies were also incubated for 1 h at RT, followed by washing and by addition of suitable detection antibodies coupled to HRP. Measurement was carried out as described above for the Screening ELISA.

canine PD-L1 on cells = molecular target: T2, canine PD-L1 on cells (canine); test: flow cytometry on HEK293c18 cells transfected with canine PD-L1
T2 construct: also called wildtype canine PD-L1 on transfected HEK293c18 cells
T2 chain: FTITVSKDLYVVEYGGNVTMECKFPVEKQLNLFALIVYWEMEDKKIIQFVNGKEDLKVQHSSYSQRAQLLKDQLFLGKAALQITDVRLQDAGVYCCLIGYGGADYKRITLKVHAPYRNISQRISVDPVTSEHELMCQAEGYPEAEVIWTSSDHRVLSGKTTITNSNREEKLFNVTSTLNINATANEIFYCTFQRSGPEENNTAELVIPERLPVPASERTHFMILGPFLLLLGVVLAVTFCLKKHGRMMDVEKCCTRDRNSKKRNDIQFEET
Protocol: HEK293c18 cells were seeded in 6 well plates at a density of 1×10⁶ cells/well in DMEM+10% FCS. The next day, the transfection mix was prepared. […] Per well, 2 μg of the plasmid encoding for wildtype canine PD-L1 was diluted in 200 μl jetPRIME buffer. The solution was mixed and 4 μl of the transfection reagent was added, followed by mixing and centrifuging of the mixture. Then, the medium of the adherent cells is replaced by fresh medium and the transfection mix is carefully added onto the cells. The plate containing the transfected cells is placed back in the incubator and incubated for 24 h.
The cells were washed once by addition of 200 μl per well PBS/EDTA and centrifugation at 1500 rpm for 5 min. The supernatant was carefully decanted by holding the plate upside down above a waste and dried on a paper towel. Then, the cells were stained for dead cells with the dye Zombie violet (Biolegend; Cat.: 423114) diluted 1:500 in PBS/EDTA for 15 minutes at 4° C. in the dark. Subsequently, cells were washed with FACS Buffer (PBS/EDTA+2% FCS) as described above. Titration series of CAN1005016 and CAN1005019 usually ranging from 10 ng/ml to 10 μg/ml were prepared diluted in FACS buffer and added to the respective wells for a 30-minute incubation at 4° C. in the dark. […] Finally, the cells were washed again 3× and then resuspended in 200 μl FACS buffer and measured directly.

[2] = molecular target: T1, cPD-L1_hFc (canine PD-L1 Fc-fusion …); test: ELISA ligand-binding inhibition, cPD-L1_hFc on the plate, competitor PD-1-Biotin (206 nM)
Protocol: cPD-L1 fusion proteins were directly immobilized on the plate overnight at 4° C., commonly in a concentration of 57 nM. For […] ELISA, black 384 well Maxisorp plates were used. The coated plates were washed 3× with PBS-T, followed by blocking with Chemiblocker (Merck-Millipore; 2170) for 1 h at RT. The blocked plates were washed 3× with PBS-T, followed by addition of titration-series of blocking antibodies and incubation for 1 h at RT. Subsequently plates were washed again 3× with PBS-T and PD-1-Biotin (1× biotinylated via Avi-tag; Sinobiological Cat.: 70109-D27H-B) was added and incubated for 1 h at RT, usually in a concentration of 4 μg/ml (206 nM). This concentration of canine PD-1-Biotin was previously identified as optimal by titrating the binding of PD-1-Biotin towards immobilized canine PD-L1_hFc. After incubation with the ligand PD-1, the plate was washed 3× with PBS-T and suitable detection reagent for the biotinylated PD-1, usually Streptavidin-HRP, was added and incubated for 1 h at RT. Subsequently, the plate was washed 5×, followed by addition of Quanta Blue and measurement as described above for the screening ELISA.

PD-L1-his = molecular target: T3, PD-L1-his (canine); test: grating-coupled interferometry (waveRAPID): antibody captured on PAG chip, PD-L1-his as analyte, 1:1 fit, 25 C
T3 construct: also called monovalent PD-L1 antigen; not shown: his tag
T3 chain: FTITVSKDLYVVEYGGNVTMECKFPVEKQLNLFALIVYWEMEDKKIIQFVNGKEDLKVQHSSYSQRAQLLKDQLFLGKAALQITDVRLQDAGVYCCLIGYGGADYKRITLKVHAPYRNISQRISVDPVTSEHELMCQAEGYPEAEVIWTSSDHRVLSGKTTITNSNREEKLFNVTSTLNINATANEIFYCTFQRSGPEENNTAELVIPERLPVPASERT
Protocol: To further characterize the kinetic properties of our candidates CAN1005016 and CAN1005019, the KD of our candidates was quantified using waveRAPID in a GCI system according to the procedure described below. The binding kinetics study was performed on the Creoptix® WAVEdelta system using a PAG sensor chip (Creoptix, a Malvern Panalytical brand). All experiments were performed with HBS-EP (Cytiva) as running buffer, at a temperature of 25° C. and sampling rate of 10 Hz. Data acquisition and evaluation were performed using WAVEcontrol software version 4.5.13.
Prior to ligand capturing, the sensor chip was conditioned by a 180 sec injection of 100 mM sodium borate, 1 M NaCl, pH 9 (Xantec). Antibody was diluted to 1 μg/ml in HBS-EP and captured to a density of =300 pg/mm2 on flow channel 2. Flow channel 1 was left blank to serve as a reference surface. For collection of kinetic data, PD-L1-his was diluted to 200 nM in HBS-EP and injected over ligand and reference surfaces in repeated analyte pulses of increasing duration (waveRAPID) at flowrate of 60 μl/min. PD-L1-his was injected for a total duration of 180 sec, followed by measuring complex-dissociation in running buffer for 30 min. Blank injections were performed to enable double referencing of the data and a 0.5% DMSO pulse injection (running buffer with 0.5% DMSO) was used as an analyte concentration modulation calibration curve. Data were corrected (X and Y offset, DMSO calibration, double referencing) and fitted with a simple 1:1 interaction model (global fit) to obtain kinetic parameters.

[3] = molecular target: T4, biotinylated cPD-L1_hFc (Sino Biological Cat. 70110-D02H-B) (canine; human, biotinylated (sites not given)); test: Fab-capture ELISA: Fab on anti-canine Fab capture antibody, cPD-L1_hFc-Biotin titrated
T4 construct: also called cPD-L1-biotin; cPD-L1_hFc-Biotin; not shown: human Fc tag (hFc)
T4 chain: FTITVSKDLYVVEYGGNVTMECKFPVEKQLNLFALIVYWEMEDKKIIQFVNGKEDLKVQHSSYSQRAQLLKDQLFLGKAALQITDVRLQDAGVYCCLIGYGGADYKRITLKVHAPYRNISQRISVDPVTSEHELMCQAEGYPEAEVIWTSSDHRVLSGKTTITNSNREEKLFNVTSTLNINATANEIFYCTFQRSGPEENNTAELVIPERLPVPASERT
Protocol: The screening was performed as described in Example 4. Fab binders of CAN1005016 and CAN1005019 were loaded onto plate-bound anti-canine Fab capture antibody, followed by addition of titration series of cPD-L1_hFc-Biotin. Detection was performed with Streptavidin-HRP. The parental clone CAN1005001 was included as a control. Curve fits and EC50 values were analyzed with GraphPad Prism.

[4] = molecular target: T4, biotinylated cPD-L1_hFc (Sino …); test: Fab-capture ELISA: Fab from lysate on anti-canine Fab antibody, cPD-L1-biotin titrated
Protocol: To identify derivatives with a higher affinity, an alternative ELISA setup was used for screening to better normalize BEL expression levels and differentiate Fabs more efficiently with respect to their affinity. In contrast to the previous screening ELISA setup, a Maxisorp plate was coated over night with an anti-canine Fab antibody in a low density of 1 μg/ml. Coated plates were washed 3× with PBS-T, followed by loading with diluted BELs. After the BEL incubation and washing with PBS-T, dilution series of cPD-L1-biotin was added to the plate. Detection was performed with Streptavidin-HRP, followed by more stringent 5× washing with PBS-T and Quanta Blue substrate addition. Measurement was performed as described before (Example 1).

- EC50 [1]: 0.049 nM
- EC50 (canine PD-L1 on cells): 11.8 nM
- IC50 [2]: 1.32 nM
- Kd (PD-L1-his): 1.7 nM
B1: CAN1005019 IgG (antibody, V domains shown)
VH: EVQLVESGGDLVKPAGSLRLSCVASGFTFSSYSMSWVRQAPEKGLQLVAWIDAYAGVTSYANAVKGRFTISRDNAKNTVYLQMNSLRAEDTAMYYCARGQGGRSSFDYWGQGTLVTVSS
VL: SYVLTQLPSVSVTLRQTARITCGGDSIGSKNVYWYQQKLGQAPVLIIYDDSSRPSGIPERFSGANSGNTATLTISGALAEDEADYYCQSYDIPLTGTVFGGGTQLTVLG
notes: also called biotinylated CAN1005019

- EC50 [3]: 0.087 nM
B2: CAN1005016 Fab (Fab, V domains shown)
VH: EVQLVESGGDLVKPGGTLRLSCVASGFTFSSYDMSWVRQSPGKGLQWVAVIWNTGSHAYYADAVKGRFTISRDNAKNTLYLQMNSLRAEDTAVYYCARGRQPRLVGTLDLWGQGTLVTVSS
VL: SYVLTQLPSVSVTLRQTARITCGGDSIGSKNVYWYQQKLGQAPVLIIYDDSSRPSGIPERFSGANSGNTATLTISGALAEDEADYYCQTYDSLVDVGVFGGGTQLTVL

- Kd (PD-L1-his): 2.8 nM
B3: CAN1005010H2 (as captured in the GCI measurement of anti-PD-L1 IgGs) (antibody, V domains shown)
VH: EVQLVESGGDLVKPGGTLRLSCVASGFTFSSYDMSWVRQSPGKGLQWVAVIWNTGSHAYYADAVKGRFTISRDNAKNTLYLQMNSLRAEDTAVYYCARGRQPRLVGTLDLWGQGTLVTVSS
VL: SYVLTQLPSVSVTLRQTARITCGGDSIGSKNVYWYQQKLGQAPVLIIYDDSSRPSGIPERFSGANSGNTATLTISGALAEDEADYYCSTYDSLLDVGVFGGGTQLTVL
notes: also called parental clone CAN1005010H2

- EC50 [4]: 0.362 nM
B4: CAN1005001L1 Fab (Fab, V domains shown)
VH: EVQLVESGGDLVKPAGSLRLSCVASGFTFSSYSMSWVRQAPEKGLQLVAGISSGGSSTYYTDAVKGRFTISRDNAKNTVYLQMNSLRAEDTAMYYCARGQGGRSSFDYWGQGTLVTVSS
VL: SYVLTQLPSVSVTLRQTARITCGGDSIGSKNVYWYQQKLGQAPVLIIYDDSSRPSGIPERFSGANSGNTATLTISGALAEDEADYYCQSYDIPLTGTVFGGGTQLTVL
notes: Fab from bacterial lysate

- EC50 [3]: 0.138 nM
B5: CAN1005019 Fab (Fab, V domains shown)
VH: EVQLVESGGDLVKPAGSLRLSCVASGFTFSSYSMSWVRQAPEKGLQLVAWIDAYAGVTSYANAVKGRFTISRDNAKNTVYLQMNSLRAEDTAMYYCARGQGGRSSFDYWGQGTLVTVSS
VL: SYVLTQLPSVSVTLRQTARITCGGDSIGSKNVYWYQQKLGQAPVLIIYDDSSRPSGIPERFSGANSGNTATLTISGALAEDEADYYCQSYDIPLTGTVFGGGTQLTVL

- EC50 [4]: 0.82 nM
B6: CAN1005001 Fab (Fab, V domains shown)
VH: EVQLVESGGDLVKPAGSLRLSCVASGFTFSSYSMSWVRQAPEKGLQLVAGISSGGSSTYYTDAVKGRFTISRDNAKNTVYLQMNSLRAEDTAMYYCARGQGGRSSFDYWGQGTLVTVSS
VL: SYVLTQLPSVSVTLRQTARITCGGDSIGSKNVYWYQQKLGQAPVLIIYDDSSRPSGIPERFSGANSGNTATLTISGALAEDEADYYCQSYAMPLTGTVFGGGTQLTVL
notes: also called parental clone CAN1005001

- EC50 [4]: 0.121 nM
B7: CAN1005010H2 Fab (Fab, V domains shown)
VH: EVQLVESGGDLVKPGGTLRLSCVASGFTFSSYDMSWVRQSPGKGLQWVAVIWNTGSHAYYADAVKGRFTISRDNAKNTLYLQMNSLRAEDTAVYYCARGRQPRLVGTLDLWGQGTLVTVSS
VL: SYVLTQLPSVSVTLRQTARITCGGDSIGSKNVYWYQQKLGQAPVLIIYDDSSRPSGIPERFSGANSGNTATLTISGALAEDEADYYCSTYDSLLDVGVFGGGTQLTVL
notes: Fab from bacterial lysate

- EC50 [4]: 0.139 nM
B8: CAN1005010L1 Fab (Fab, V domains shown)
VH: EVQLVESGGDLVKPGGTLRLSCVASGFTFSSYDMSWVRQSPGKGLQWVAVIWNEGSSTYYADAVKGRFTISRDNAKNTLYLQMNSLRAEDTAVYYCARGRQPRLVGTLDLWGQGTLVTVSS
VL: SYVLTQLPSVSVTLRQTARITCGGDSIGSKNVYWYQQKLGQAPVLIIYDDSSRPSGIPERFSGANSGNTATLTISGALAEDEADYYCQTYDSLVDVGVFGGGTQLTVL
notes: Fab from bacterial lysate

- EC50 [4]: 0.097 nM
B9: CAN1005001H3 Fab (Fab, V domains shown)
VH: EVQLVESGGDLVKPAGSLRLSCVASGFTFSSYSMSWVRQAPEKGLQLVAWIDAYAGVTSYANAVKGRFTISRDNAKNTVYLQMNSLRAEDTAMYYCARGQGGRSSFDYWGQGTLVTVSS
VL: SYVLTQLPSVSVTLRQTARITCGGDSIGSKNVYWYQQKLGQAPVLIIYDDSSRPSGIPERFSGANSGNTATLTISGALAEDEADYYCQSYAMPLTGTVFGGGTQLTVL
notes: Fab from bacterial lysate
